Measured values: US6306622, “cDNA encoding a BMP type II receptor” (The Procter & Gamble Co., dated 2001)
Several values for one entry are separate records, joined by “and”; a condition that tells them apart may be missing. Equal entries are not always repeated.

T1: [^125 I]-BMP-4 (Homo sapiens (Human), UniProt P12644, 125I label (iodinated with IODOBEADS or by the chloramine-T method))
T1 sequence: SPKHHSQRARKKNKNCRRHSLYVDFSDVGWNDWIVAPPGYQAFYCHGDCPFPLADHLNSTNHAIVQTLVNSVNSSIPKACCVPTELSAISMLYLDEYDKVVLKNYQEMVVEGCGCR

T2: mouse BMP receptor kinase protein (m-BRK-3) (mouse)
T2 chain: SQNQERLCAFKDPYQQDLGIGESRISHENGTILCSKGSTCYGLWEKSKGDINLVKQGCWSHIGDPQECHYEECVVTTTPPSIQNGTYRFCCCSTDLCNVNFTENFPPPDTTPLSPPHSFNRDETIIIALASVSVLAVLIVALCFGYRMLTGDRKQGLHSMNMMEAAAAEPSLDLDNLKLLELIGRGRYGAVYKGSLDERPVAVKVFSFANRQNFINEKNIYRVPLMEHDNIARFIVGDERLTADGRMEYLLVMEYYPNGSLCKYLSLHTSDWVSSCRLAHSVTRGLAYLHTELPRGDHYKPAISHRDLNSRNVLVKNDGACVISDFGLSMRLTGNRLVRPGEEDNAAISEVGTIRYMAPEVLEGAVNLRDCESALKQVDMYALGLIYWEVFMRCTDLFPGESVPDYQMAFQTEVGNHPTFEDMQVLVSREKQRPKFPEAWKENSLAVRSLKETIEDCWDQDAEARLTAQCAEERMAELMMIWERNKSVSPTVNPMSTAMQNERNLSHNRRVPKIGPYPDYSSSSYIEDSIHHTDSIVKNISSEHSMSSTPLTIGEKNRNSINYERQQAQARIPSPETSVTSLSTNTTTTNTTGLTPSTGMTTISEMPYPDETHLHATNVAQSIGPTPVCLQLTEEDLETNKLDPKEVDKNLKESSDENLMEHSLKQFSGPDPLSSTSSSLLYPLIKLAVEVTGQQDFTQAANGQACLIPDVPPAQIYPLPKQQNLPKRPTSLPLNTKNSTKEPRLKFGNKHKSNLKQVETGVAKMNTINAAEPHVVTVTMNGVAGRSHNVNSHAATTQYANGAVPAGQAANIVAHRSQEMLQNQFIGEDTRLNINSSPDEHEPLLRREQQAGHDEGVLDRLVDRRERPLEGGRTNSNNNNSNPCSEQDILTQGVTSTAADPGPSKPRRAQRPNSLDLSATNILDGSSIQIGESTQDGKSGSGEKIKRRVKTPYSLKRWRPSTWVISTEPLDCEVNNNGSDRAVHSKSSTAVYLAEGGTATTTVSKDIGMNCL

B1: m-BRK-3/BRK-1 complex (receptor)
chain 1: T2 chain
chain 2: QNLDSMLHGTGMKSDLDQKKPENGVTLAPEDTLPFLKCYCSGHCPDDAINNTCITNGHCFAIIEEDDQGETTLTSGCMKYEGSDFQCKDSPKAQLRRTIECCRTNLCNQYLQPTLPPVVIGPFFDGSIRWLVVLISMAVCIVAMIIFSSCFCYKHYCKSISSRGRYNRDLEQDEAFIPVGESLKDLIDQSQSSGSGSGLPLLVQRTIAKQIQMVRQVGKGRYGEVWMGKWRGEKVAVKVFFTTEEASWFRETEIYQTVLMRHENILGFIAADIKGTGSWTQLYLITDYHENGSLYDFLKCATLDTRALLKLAYSAACGLCHLHTEIYGTQGKPAIAHRDLKSKNILIKKNGSCCIADLGLAVKFNSDTNEVDIPLNTRVGTKRYMAPEVLDESLNKNHFQPYIMADIYSFGLIIWEMARRCITGGIVEEYQLPYYNMVPSDPSYEDMREVVCVKRLRPIVSNRWNSDECLRAVLKLMSECWAHNPASRLTALRIKKTLAKMVESQDVKI
B2: m-BRK-3/BRK-2 complex (receptor)
chain 1: T2 chain
chain 2: RKEDSEGTAPAPPQKKLSCQCHHHCPEDSVNSTCSTDGYCFTIIEEDDSGGHLVTKGCLGLEGSDFQCRDTPIPHQRRSIECCTGQDYCNKHLHPTLPPLKNRDFAEGNIHHKALLISVTVCSILLVLIIIFCYFRYKRQEARPRYSIGLEQDETYIPPGESLKDLIEQSQSSGSGSGLPLLVQRTIAKQIQMVKQIGKGRYGEVWMGKWRGEKVAVKVFFTTEEASWFRETEIYQTVLMRHENILGFIAADIKGTGSWTQLYLITDYHENGSLYDYLKSTTLDTKGMLKLAYSSVSGLCHLHTGIFSTQGKPAIAHRDLKSKNILVKKNGTCCIADLGLAVKFISDTNEVDIPPNTRVGTKRYMPPEVLDESLNRNHFQSYIMADMYSFGLILWEIARRCVSGGIVEEYQLPYHDLVPSDPSYEDMREIVCIKRLRPSFPNRWSSDECLRQMGKLMMECWAHNPASRLTALRVKKTLAKMSESQDIKL
B3: [^125 I]-BMP-4, P12644 (ligand)
chain: T1 sequence
modifications: here or on the partner: 125I label (iodinated with IODOBEADS or by the chloramine-T method)

How the values were obtained:
[^125 I]-BMP-4 = biological target: T1, [^125 I]-BMP-4; assay: covalent crosslinking (DSS) to co-transfected COS-1 cells, SDS gel
Source text: COS-1 cells are transfected with the cDNA for m-BRK-3 using the construct pJT6-mBRK-3S, and/or with cDNAs for BRK-1 (using pJT4-J159F) or BRK-2 (using pJT3-BRK-2). The cells are then allowed to bind [^125I]-BMP-4, crosslinked with disuccinimidyl suberate, immunoprecipitated with antibodies to BRK-1 or BRK-2, and subjected to SDS gel electrophoresis. Antisera used are indicated below the lanes: PI, preimmune; 1379, for cells transfected with cDNA for BRK-1; 1380, for cells transfected with cDNA for BRK-2. Position of molecular weight standards is indicated on the left. Left to right, COS-1 cells transfected with BRK-1 plus m-BRK-3 (preimmune serum); BRK-1 alone; BRK-1 plus m-BRK-3; BRK-2 plus m-BRK-3; BRK-2 alone; and BRK-2 plus m-BRK-3 (preimmune serum).
COS-1 cells are transfected with the cDNA for m-BRK-3, using the construct pJT6-mBRK-3 S, and/or with cDNAs for BRK-1 (using pJT4-J159F) or BRK-2 (using pJT3-BRK-2) as described in Example 5. The transfected cells are incubated with [^125I]-BMP-4, crosslinked, and subjected to immunoprecipitation with antibodies to the appropriate type I receptor or preimmune serum as described in example 8, except that DSS is used as the crosslinking agent rather than disuccinimidyl glutarate. In cells transfected with cDNA for BRK-1 alone, a single band is precipitated by antibodies to BRK-1, migrating at an apparent molecular weight of 81 kD. […]

[1] = biological target: T2, mouse BMP receptor kinase protein …; assay: whole cell binding of [125I]-BMP-4 to COS-1 cells transfected with pJT6-mBRK-3S or pJT6-mBRK-3L; settings: remark: other sources report otherwise; scale: times the level of mock transfected cells

| Binder | binding result ([^125 I]-BMP-4) | specific binding, times the level seen with mock transfected cells [1] |
| --- | --- | --- |
| B1 | binds |  |
| B2 | binds |  |
| B3 |  | 4 and 4 to 7 |
